Data: patent publication US20160237164A1 (VIVENTIA BIO, published 2016)
Like-named read-outs stand apart in the source and are kept apart here.

Columns and labels:
[1] = molecular target: Epithelial Cell Adhesion Molecule (EpCAM) (human) (UniProt P16422)
[2] = molecular target: Epithelial Cell Adhesion Molecule (EpCAM) (human) (UniProt P16422); remark: listed apart in the source
[3] = molecular target: Epithelial Cell Adhesion Molecule (EpCAM) (human) (UniProt P16422); remark: listed apart in the source
[4] = molecular target: T1, Epithelial Cell Adhesion Molecule (EpCAM) (human, UniProt P16422 24-314)
T1 sequence (looked up): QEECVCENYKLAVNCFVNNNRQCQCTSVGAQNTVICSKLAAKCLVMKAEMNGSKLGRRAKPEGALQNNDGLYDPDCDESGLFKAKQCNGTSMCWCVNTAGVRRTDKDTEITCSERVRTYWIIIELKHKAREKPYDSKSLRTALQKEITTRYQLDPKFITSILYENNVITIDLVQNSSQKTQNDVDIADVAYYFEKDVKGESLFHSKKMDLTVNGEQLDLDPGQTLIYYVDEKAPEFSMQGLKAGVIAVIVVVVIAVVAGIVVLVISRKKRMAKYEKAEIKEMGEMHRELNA

[5] = molecular target: T1, Epithelial Cell Adhesion Molecule …; remark: listed apart in the source
[6] = molecular target: T1, Epithelial Cell Adhesion Molecule …; experiment: cell-based or functional assay
[7] = molecular target: T1, Epithelial Cell Adhesion Molecule …; experiment: flow cytometry on HT-29 cells (EpCAM-positive), purified protein at 100 ng/mL
[8] = molecular target: T1, Epithelial Cell Adhesion Molecule …; experiment: flow cytometry on MCF-7 cells (EpCAM-positive), purified protein at 100 ng/mL
[9] = molecular target: T1, Epithelial Cell Adhesion Molecule …; experiment: flow cytometry on CAL-27 cells (EpCAM-positive), purified protein at 100 ng/mL
[10] = molecular target: T1, Epithelial Cell Adhesion Molecule …; experiment: flow cytometry on OVCAR-3 cells (EpCAM-positive), purified protein at 100 ng/mL
[11] = molecular target: T1, Epithelial Cell Adhesion Molecule …; remark: listed apart in the source
[12] = molecular target: T1, Epithelial Cell Adhesion Molecule …; remark: listed apart in the source
[13] = molecular target: T2, Epithelial Cell Adhesion Molecule (EpCAM) (human, UniProt P16422 24-314); experiment: flow cytometry (Lineweaver-Burk), Cal-27 cells
T2 chain: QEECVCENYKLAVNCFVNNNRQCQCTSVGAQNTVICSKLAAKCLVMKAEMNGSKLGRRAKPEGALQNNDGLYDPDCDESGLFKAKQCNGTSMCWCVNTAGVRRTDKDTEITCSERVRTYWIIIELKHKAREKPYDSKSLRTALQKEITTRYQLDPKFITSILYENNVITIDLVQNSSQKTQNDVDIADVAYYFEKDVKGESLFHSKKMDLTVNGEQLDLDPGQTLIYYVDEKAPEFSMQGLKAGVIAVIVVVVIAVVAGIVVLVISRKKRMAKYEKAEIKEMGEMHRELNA

[14] = molecular target: T1, Epithelial Cell Adhesion Molecule …; experiment: flow cytometry titration (3.2 to 1000 ng/mL) on CAL-27 cells, Lineweaver-Burk plot

VB6-845 VH-S93 / VL-WT (Fab)
MF (median fluorescence, % of WT) [1]: 35 % of WT

VB6-845 VH-WT / VL-FR2 (H39-S42), second version (Fab)
MF (median fluorescence, % of WT) [2]: 68 % of WT

VB6-845 VH-WT / VL-FR2 (D41-Q42), first version (Fab)
MF (median fluorescence, % of WT) [3]: 84 % of WT

VB6-845 VH-WT / VL-CDR2 (E51-H53-Q55) (Fab)
MF (median fluorescence, % of WT) [2]: 70 % of WT

VB6-845 VH-N53 / VL-WT (Fab)
MF (median fluorescence, % of WT) [1]: 23 % of WT

B1: VB6-845-(VH-IIr-CDR1/VL-Ir-Q50) (Fab)
chain 1: EVQLVQSGPGLVQPGGSVRISCAASGYTFTNYGMNWVKQAPGKGLEWMGWINTYTGESTYADSFKGRFTFSLDTSASAAYLQINSLRAEDTAVYYCARFAIKGDYWGQGTLLTVSSASTKGPSVFPLAPSSKSTSGGTAALGCLVKDYFPEPVTVSWNSGALTSGVHTFPAVLQSSGLYSLSSVVTVPSSSLGTQTYICNVNHKPSNTKVDKKVEPKSCTRHRQPRGWEQLYNTVSFNLGEAYEYPTFIQDLRNELAKGTPVCQLPVTLQTIADDKRFVLVDITTTSKKTVKVAIDVTDVYVVGYQDKWDGKDRAVFLDKVPTVATSKLFPGVTNRVTLTFDGSYQKLVNAAKADRKALELGVNKLEFSIEAIHGKTINGQEAAKFFLIVIQMVSEAARFKYIETEVVDRGLYGSFKPNFKVLNLENNWGDISDAIHKSSPQCTTINPALQLISPSNDPWVVNKVSQISPDMGILKFKSSK
chain 2: HHHHHHDIQMTQSPSSLSASVGDRVTITCRSTKSLLHSNGITYLYWYQQKPGKAPKLLIYQMSNLASGVPSRFSSSGSGTDFTLTISSLQPEDFATYYCAQNLEIPRTFGQGTKVELKRTVAAPSVFIFPPSDEQLKSGTASVVCLLNNFYPREAKVQWKVDNALQSGNSQESVTEQDSKDSTYSLSSTLTLSKADYEKHKVYACEVTHQGLSSPVTKSFNRGEC
MF (median fluorescence, % of WT) [4]: 78 % of WT

B2: VB6-845-Algo (VH-IIr-N35-Q98 / VL-IIr-KSHI) (Fab)
heavy: EVQLQQSGPGLVQPGGSVRISCAASGYTFTAYGMNWVRQAPGKGLEWMGWINTYTGESTYADSFKGRFEFSLDTHNSSAYLQIQSLREEDTAVYYCARFAIQGDYWGQGTLVTVSSASTKGPSVFPLAPSSKSTSGGTAALGCLVKDYFPEPVTVSWNSGALTSGVHTFPAVLQSSGLYSLSSVVTVPSSSLGTQTYICNVNHKPSNTKVDKKVEPKSC
light: DIQMTQSPSSLSASVGDRVTITCKSTKSLLHSNGITYLYWYQQKPGSAPKLLIYQMSHLASGVPSRFSSSGSGTDFTLTISSLQPEDFATYYCAQNLEIPRTFGQGTKVEIKRTVAAPSVFIFPPSDEQLKSGTASVVCLLNNFYPREAKVQWKVDNALQSGNSQESVTEQDSKDSTYSLSSTLTLSKADYEKHKVYACEVTHQGLSSPVTKSFNRGECTRHRQPRGWEQKYNTVSFNLGEAYEYPTFIQDLRNELAKGTPVCQLPVTLQTIADDKRFVLVDITTTSKKTVKVAIDVTDVYVVGYQDKWDGKDRAVFLDKVPTVATSKLFPGVTNRVTLTFDGSYQKLVNAAKADRKALELGVNKLEFSIEAIHGKTINGQEAAKFFLIVIQMVSEAARFKYIETEVVDRGLYGSFKPNFKVLNLENNWGDISDAIHKSSPQCTTINPALQLISPSNDPWVVNKVSQISPDMGILKFKSSK
MF (median fluorescence, % of WT) [5]: 94 % of WT | IC50 (nM), MTS cytotoxicity assay, CAL-27 (EpCAM-positive) [6]: 18 nM | IC50 (nM), MTS cytotoxicity assay, HT-29 (EpCAM-positive) [6]: 15 nM | IC50 (nM), MTS cytotoxicity assay, MCF-7 (EpCAM-positive) [6]: 2.3 nM | IC50 (nM), MTS cytotoxicity assay, OVCAR-3 (EpCAM-positive) [6]: 2.9 nM | FI (fold increase) at 100 ng/mL [7]: 41.6 fold | FI (fold increase) at 100 ng/mL [8]: 27.7 fold | FI (fold increase) at 100 ng/mL [9]: 14 fold | FI (fold increase) at 100 ng/mL [10]: 40.9 fold

B3: VB6-845 VH-IIr-N35-Q98 / VL-WT (Fab)
heavy: EVQLQQSGPGLVQPGGSVRISCAASGYTFTAYGMNWVRQAPGKGLEWMGWINTYTGESTYADSFKGRFEFSLDTHNSSAYLQIQSLREEDTAVYYCARFAIQGDYWGQGTLVTVSSASTKGPSVFPLAPSSKSTSGGTAALGCLVKDYFPEPVTVSWNSGALTSGVHTFPAVLQSSGLYSLSSVVTVPSSSLGTQTYICNVNHKPSNTKVDKKVEPKSC
light: DIQMTQSPSSLSASVGDRVTITCRSTKSLLHSNGITYLYWYQQKPGKAPKLLIYQMSNLASGVPSRFSSSGSGTDFTLTISSLQPEDFATYYCAQNLEIPRTFGQGTKVELKRTVAAPSVFIFPPSDEQLKSGTASVVCLLNNFYPREAKVQWKVDNALQSGNSQESVTEQDSKDSTYSLSSTLTLSKADYEKHKVYACEVTHQGLSSPVTKSFNRGECTRHRQPRGWEQKYNTVSFNLGEAYEYPTFIQDLRNELAKGTPVCQLPVTLQTIADDKRFVLVDITTTSKKTVKVAIDVTDVYVVGYQDKWDGKDRAVFLDKVPTVATSKLFPGVTNRVTLTFDGSYQKLVNAAKADRKALELGVNKLEFSIEAIHGKTINGQEAAKFFLIVIQMVSEAARFKYIETEVVDRGLYGSFKPNFKVLNLENNWGDISDAIHKSSPQCTTINPALQLISPSNDPWVVNKVSQISPDMGILKFKSSK
MF (median fluorescence, % of WT) [11]: 100 % of WT

B4: VB6-845 VH-WT / VL-IIr-KSHI (Fab)
heavy: EVQLVQSGPGLVQPGGSVRISCAASGYTFTNYGMNWVKQAPGKGLEWMGWINTYTGESTYADSFKGRFTFSLDTSASAAYLQINSLRAEDTAVYYCARFAIKGDYWGQGTLLTVSSASTKGPSVFPLAPSSKSTSGGTAALGCLVKDYFPEPVTVSWNSGALTSGVHTFPAVLQSSGLYSLSSVVTVPSSSLGTQTYICNVNHKPSNTKVDKKVEPKSC
light: DIQMTQSPSSLSASVGDRVTITCKSTKSLLHSNGITYLYWYQQKPGSAPKLLIYQMSHLASGVPSRFSSSGSGTDFTLTISSLQPEDFATYYCAQNLEIPRTFGQGTKVEIKRTVAAPSVFIFPPSDEQLKSGTASVVCLLNNFYPREAKVQWKVDNALQSGNSQESVTEQDSKDSTYSLSSTLTLSKADYEKHKVYACEVTHQGLSSPVTKSFNRGECTRHRQPRGWEQKYNTVSFNLGEAYEYPTFIQDLRNELAKGTPVCQLPVTLQTIADDKRFVLVDITTTSKKTVKVAIDVTDVYVVGYQDKWDGKDRAVFLDKVPTVATSKLFPGVTNRVTLTFDGSYQKLVNAAKADRKALELGVNKLEFSIEAIHGKTINGQEAAKFFLIVIQMVSEAARFKYIETEVVDRGLYGSFKPNFKVLNLENNWGDISDAIHKSSPQCTTINPALQLISPSNDPWVVNKVSQISPDMGILKFKSSK
MF (median fluorescence, % of WT) [12]: 89 % of WT

B5: VB5-845-WT (non-deimmunized VB5-845 Fab fragment) (Fab, V domains shown)
VH: EVQLVQSGPGLVQPGGSVRISCAASGYTFTNYGMNWVKQAPGKGLEWMGWINTYTGESTYADSFKGRFTFSLDTSASAAYLQINSLRAEDTAVYYCARFAIKGDYWGQGTLLTVSS
VL: DIQMTQSPSSLSASVGDRVTITCRSTKSLLHSNGITYLYWYQQKPGKAPKLLIYQMSNLASGVPSRFSSSGSGTDFTLTISSLQPEDFATYYCAQNLEIPRTFGQGTKVELKR
Kd [13]: 1.46 nM | Kd [14]: 1.56 nM

B6: VB5-845-Algo Fab (Fab, V domains shown)
VH: EVQLQQSGPGLVQPGGSVRISCAASGYTFTAYGMNWVRQAPGKGLEWMGWINTYTGESTYADSFKGRFEFSLDTHNSSAYLQIQSLREEDTAVYYCARFAIQGDYWGQGTLVTVSS
VL: DIQMTQSPSSLSASVGDRVTITCKSTKSLLHSNGITYLYWYQQKPGSAPKLLIYQMSHLASGVPSRFSSSGSGTDFTLTISSLQPEDFATYYCAQNLEIPRTFGQGTKVEIKR
Kd [14]: 1.31 nM
